Results: patent publication US20140220596A1 (MEDICINAL BIOCONVERGENCE RESEARCH CENTER, published 2014)

Target: T1, Fc-fused soluble cadherin-6 (extracellular domain of CDH6 fused to the Fc fragment of human IgG1) (human, UniProt P55285 54-615)
T1 construct: also called Fc-CDH6; Fc-fused CDH6; not shown: Fc fragment of human IgG1
T1 sequence: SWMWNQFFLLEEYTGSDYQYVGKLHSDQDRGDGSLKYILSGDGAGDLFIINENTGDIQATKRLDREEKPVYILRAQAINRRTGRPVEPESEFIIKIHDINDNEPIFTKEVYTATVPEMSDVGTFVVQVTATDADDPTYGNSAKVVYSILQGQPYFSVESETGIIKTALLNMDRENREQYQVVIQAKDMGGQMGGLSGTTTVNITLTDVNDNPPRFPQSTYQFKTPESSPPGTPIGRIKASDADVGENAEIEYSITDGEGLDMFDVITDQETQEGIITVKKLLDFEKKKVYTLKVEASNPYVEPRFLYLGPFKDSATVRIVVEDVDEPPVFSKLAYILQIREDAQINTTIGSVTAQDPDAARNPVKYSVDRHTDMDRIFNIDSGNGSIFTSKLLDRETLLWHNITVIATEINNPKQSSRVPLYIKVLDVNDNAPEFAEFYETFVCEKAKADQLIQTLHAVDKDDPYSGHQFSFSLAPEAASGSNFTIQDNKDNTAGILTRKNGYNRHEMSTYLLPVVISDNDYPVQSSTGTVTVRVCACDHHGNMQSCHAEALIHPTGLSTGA
Assay: GST pull-down with GSH-sepharose, immunoblot for CDH6
Experimental: (A) A panel of Fc-fused soluble cadherin family proteins was bound to His-tagged GRS or to BSA-coated plates, and complexes were detected with the IgG1 Fc-HRP (Thermo) reagent. (B) To confirm the binding between cadherins and GRS, Fc-CDH2, 6 and 18 were incubated with His-GRS. Fc-CDHs were precipitated with protein A/G agarose and co-precipitated GRS was determined by immunoblotting. (C) To calculate the equilibrium dissociation constant (IQ), immobilized Fc-fused (to gold chips) cadherins were incubated with GRS (31.25 nM˜1 uM). Binding of GRS to CDH6 was determined by surface plasmon resonance and expressed as resonance units (RU). (D) To confirm the binding between CDH6 and GRS domain peptides, Fc-CDH6 was incubated with different domains (F1, 2, 3 and 4) of GRS that were expressed as the GST fusion proteins. GST-GRS proteins were precipitated with GSH-sepharose beads and co-precipitated CDH6 was determined by immunoblotting. (E) Five difference cancers cells were determined for the expression of CDH6 by immunoblotting. (F) HCT116 cells were transfected with non-specific siRNA controls (si-con) or two differently designed siRNAs targeting CDH6 (#1 and #2), treated with biotinylated GRS (15 nM), and the binding of GRS was analyzed by immunoblotting. (G) HCT116 cells were transfected with si-con and si-CDH6 as described above, and cell binding of GRS was measured by FACS analysis. […]

B1: GST-fused GRS fragment F4 (C-terminal anticodon-binding domain, 175 amino acids) (other, not shown: a dimerising Fc or GST; small tags and cut ends)
chain: LYVEEVVPNVIEPSFGLGRIMYTVFEHTFHVREGDEQRTFFSFPAVVAPFKCSVLPLSQNQEFMPFVKELSEALTRHGVSHKVDDSSGSIGRRYARTDEIGVAFGVTIDFDTVNKTPHTATLRDRDSMRQIRAEISELPSIVQDLANGNITWADVEARYPLFEGQETGKKETIEE
notes: also called ABD; GST-GRS F4
- binding result: binds
